Target: full-length UvsX (UvsX_(1–391)) (bacteriophage T4) (UniProt P04529)
Test: non-reducing SDS PAGE

## full-length UvsX (UvsX_(1–391)) (from UniProt P04529 1-391) (natural protein)
  ratio of dimers and monomers under oxidizing conditions: 0.5
  stoichiometry N: 2
